Experimental findings from US20210355220A1 (TIKCRO TECHNOLOGIES, published 2021) are described below.

Assay [1] deals with T1, human CTLA-4 expressed on cells (human, UniProt P16410 36-223).
T1 construct: whole, on cells; On stably or transiently transfected HEK293 cells; also called hCTLA-4; HEK293-hCTLA-4 cells
In words: flow cytometry on HEK293-hCTLA-4 cells. On the procedure: To test the binding of antibodies to CTLA-4 under more physiological conditions, the binding of CTLA-4 antibodies to cell-surface CTLA-4 was tested. […] The surface expression of hCTLA-4 in the obtained cell line was tested using a commercial anti-CTLA-4 antibody and compared to the parent cell line (HEK293 without transfection). […] The anti-CTLA-4 antibodies were incubated in serial dilution concentrations with the HEK293-hCTLA-4 cells for 1 hour on ice. Following a wash step, an anti-human antibody conjugated to ALEXA FLUOR® 647® was added for an additional hour. The cells were washed, and propidium iodide (PI) was added to exclude dead cells. The fluorescent signal was measured using FACS and analyzed. Dead cells were removed based on the PI signal. The population was gated based on forward and side scatter (FSC and SSC) parameters, and doublets were removed. The Median Fluorescent Intensity (MFI) of the appropriate channel was calculated for the live single cells from each group. The MFI was plotted versus antibody concentration in Prism software (V6.01) and kinetic parameters were obtained using a curve fit dose response function with four parameters. […] The lower EC₅₀ values indicate increased binding affinity to cell surface hCTLA-4.
A general note: In flow cytometry, cells or beads pass a laser one at a time.

For assay [2], the target named is T1, human CTLA-4 expressed on cells. In words: flow cytometry on HEK293 cells overexpressing human CTLA-4, serial dilution, MFI. On the procedure: HEK293 cells were prepared as described above. […] Binding was measured using FACS.
The target in assay [3] is T2, Recombinant human CTLA-4-his (Sino Biologicals, 11159-H08H) (human, UniProt P16410 36-162).
T2 construct: Bought protein; also called dimer hCTLA-4; not shown: his tag
In words: SPR (Biacore T100), antibody captured on anti-human chip, CTLA-4-his in solution. How it is done: Recombinant human CTLA-4-his (Sino Biologicals, 11159-H08H) was added in a serial 2-fold dilution, starting at a concentration of 500nM. […] The measurement was corrected using the baseline channel and the protein-antibody interaction was measured by the change in surface resonance and quantified with Biacore T100 control software (version 2.0.4).
In general terms: In SPR one partner is held on a chip, and binding of the other changes the refractive index at the surface.

The next assay has as its target T3, hBTLA on HEK293 cells (human, UniProt Q7Z6A9 31-289).
T3 construct: whole, on cells
In words: flow cytometry on transfected HEK293 cells. On the procedure:
(§1) HEK293 cells were transfected with expression vectors of the following immune-related proteins: hBTLA, hICOS, hCD28, hPDL1, hPD1, hPDL2, and hCTLA-4. Over-expression of the proteins was verified using commercial antibodies against each target. […] Antibody binding to cells was then detected using flow cytometry. Cells that were incubated only with the secondary antibody were used as a background control. […] Note that “+” indicates binding above the background level and “-” indicate no binding as compared to the background level.

Another assay has as its target T4, hPDL1 on HEK293 cells (human, UniProt Q9NZQ7 19-290).
T4 construct: whole, on cells
In words: flow cytometry on transfected HEK293 cells. How it is done:
as §1

The target of another assay is T5, hICOS on HEK293 cells (human, UniProt Q9Y6W8 21-199).
T5 construct: whole, on cells
T5 sequence (looked up): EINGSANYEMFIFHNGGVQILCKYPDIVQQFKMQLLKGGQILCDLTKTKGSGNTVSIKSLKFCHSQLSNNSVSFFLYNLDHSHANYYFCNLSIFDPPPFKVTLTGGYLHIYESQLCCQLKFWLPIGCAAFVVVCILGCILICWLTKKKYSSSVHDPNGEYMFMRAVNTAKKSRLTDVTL
In words: flow cytometry on transfected HEK293 cells. On the procedure: as §1

The next assay has as its target T6, hPDL2 on HEK293 cells (human, UniProt Q9BQ51 20-273).
T6 construct: whole, on cells
T6 sequence (looked up): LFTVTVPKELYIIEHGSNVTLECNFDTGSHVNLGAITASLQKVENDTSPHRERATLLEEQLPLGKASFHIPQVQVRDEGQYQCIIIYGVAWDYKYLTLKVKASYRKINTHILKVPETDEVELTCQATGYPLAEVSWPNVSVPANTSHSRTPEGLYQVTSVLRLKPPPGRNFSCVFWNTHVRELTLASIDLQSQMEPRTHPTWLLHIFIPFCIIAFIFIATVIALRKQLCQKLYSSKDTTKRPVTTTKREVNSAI
In words: flow cytometry on transfected HEK293 cells. On the procedure: as §1

The next assay addresses T7, hPD1 on HEK293 cells (human, UniProt Q15116 25-288).
T7 construct: whole, on cells
Nature of the assay: flow cytometry on transfected HEK293 cells. How it is done:
as §1

The next assay has as its target T8, hCD28 on HEK293 cells (human, UniProt P10747 19-220).
T8 construct: whole, on cells
In words: flow cytometry on transfected HEK293 cells. How it is done:
as §1

The target of assay [4] is T9, Pig (Sus scrofa) CTLA-4 on HEK293 cells (Sus scrofa, UniProt Q9MYX7 36-223).
T9 construct: whole, on cells; also called pig CTLA-4
In words: flow cytometry on HEK293 cells transiently expressing pig CTLA-4. On the procedure:
Macaque (Macaca fascicularis), pig (Sus scrofa) and mouse (Mus musculus) CTLA-4 proteins were transiently expressed on the surface of HEK293 cells. […] Binding was measured using FACS and analyzed.

T1 sequence (P16410 36-223): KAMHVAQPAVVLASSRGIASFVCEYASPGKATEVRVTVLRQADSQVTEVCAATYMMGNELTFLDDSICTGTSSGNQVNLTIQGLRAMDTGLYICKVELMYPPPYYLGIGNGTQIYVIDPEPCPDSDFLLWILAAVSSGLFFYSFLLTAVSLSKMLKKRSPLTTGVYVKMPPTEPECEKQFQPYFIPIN
T7 sequence (Q15116 25-288): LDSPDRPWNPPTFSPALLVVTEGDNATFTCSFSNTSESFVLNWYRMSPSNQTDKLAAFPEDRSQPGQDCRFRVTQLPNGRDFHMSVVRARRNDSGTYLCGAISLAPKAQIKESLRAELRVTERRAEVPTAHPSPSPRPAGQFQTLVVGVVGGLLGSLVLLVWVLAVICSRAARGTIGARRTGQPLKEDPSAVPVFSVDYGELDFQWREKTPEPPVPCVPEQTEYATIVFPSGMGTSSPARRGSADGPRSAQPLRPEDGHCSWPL
T9 sequence (Q9MYX7 36-223): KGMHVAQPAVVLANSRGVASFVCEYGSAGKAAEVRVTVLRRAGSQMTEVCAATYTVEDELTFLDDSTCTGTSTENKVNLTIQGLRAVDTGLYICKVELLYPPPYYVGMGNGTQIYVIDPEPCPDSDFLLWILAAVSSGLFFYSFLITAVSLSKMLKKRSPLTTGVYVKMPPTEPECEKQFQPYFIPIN
T2 sequence (P16410 36-162 limits assumed): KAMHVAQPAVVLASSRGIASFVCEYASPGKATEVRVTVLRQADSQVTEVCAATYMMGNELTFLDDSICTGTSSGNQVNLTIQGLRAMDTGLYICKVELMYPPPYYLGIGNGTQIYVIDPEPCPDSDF
T4 sequence (Q9NZQ7 19-290): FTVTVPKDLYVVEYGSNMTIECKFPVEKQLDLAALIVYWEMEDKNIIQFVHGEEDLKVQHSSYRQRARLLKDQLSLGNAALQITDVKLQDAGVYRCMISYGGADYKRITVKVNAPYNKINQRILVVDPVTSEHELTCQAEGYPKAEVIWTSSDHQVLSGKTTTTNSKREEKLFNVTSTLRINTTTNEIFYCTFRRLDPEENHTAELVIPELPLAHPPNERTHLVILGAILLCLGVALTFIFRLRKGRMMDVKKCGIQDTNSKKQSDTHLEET

B1: Ab55h-PM21 (antibody, V domains shown)
VH: QVQLQESGPGLVKPSETLSLTCAVSGYSISGDYYWGWIRQPPGKGLEWIGSIYHSGYTYYNPSLKSRVTISVDTSKNQFSLKLSSVTAADTAVYYCARDSGWYVIAFDYWGQGTLVTVSS
VL: EIVMTQSPATLSVSPGERATLSCRASQSVSSNLAWYQEKPGQAPRLLIYGASTRATGIPARFSGSGSGTEFTLTISSLQSEDFAVYYCQQYNNSPPLTFGGGTKVEIK
With B1, it took 220 pM to reach a half-maximal effect in assay [1] (EC50).

B2: Ab55h-PM26 (antibody, V domains shown)
VH: QVQLQESGPGLVKPSETLSLTCAVSGYSISGDYYWGWIRQPPGKGLEWIGSIYHSGYTYYNPSLKSRVTISVDTSKNQFSLKLSSVTAADTAVYYCARDVGFYVIAFDIWGQGTLVTVSS
VL: EIVMTQSPATLSVSPGERATLSCRASQSVSSNLAWYQEKPGQAPRLLIYGASTRATGIPARFSGSGSGTEFTLTISSLQSEDFAVYYCQQYNNWPPLTFGGGTKVEIK
Consider B2, for which, in assay [1], the EC50 was 350 pM.

B3: Ab55h-PM-R5 (antibody, V domains shown)
VH: QVQLQESGPGLVKPSETLSLTCAVSGYSISGDYYWGWIRQPPGKGLEWIGSIYHSGYTYYNPSLKSRVTISVDTSKNQFSLKLSSVTAADTAVYYCARDSGWYVIAFDYWGQGTLVTVSS
VL: EIVMTQSPATLSVSPGERATLSCRASQSVSSNLAWYQEKPGQAPRLLIYGASTRATGIPARFSGSGSGTEFTLTISSLQSEDFAVYYCQQYGNWPPLTFGGGTKVEIK
Turning to B3, in assay [2], the “EC50 (read off the curve)” value is around 200 pM.

B4: Ab55h-PM22 (antibody, V domains shown)
VH: QVQLQESGPGLVKPSETLSLTCAVSGYSISGDYYWGWIRQPPGKGLEWIGSIYHSGYTYYNPSLKSRVTISVDTSKNQFSLKLSSVTAADTAVYYCARDSGWYVIAFDYWGQGTLVTVSS
VL: EIVMTQSPATLSVSPGERATLSCRASQSVSSNLAWYQEKPGQAPRLLIYGASTRATGIPARFSGSGSGTEFTLTISSLQSEDFAVYYCQQYNNWPPITFGGGTKVEIK
For B4, in assay [1], it took 90 pM to reach a half-maximal effect (EC50).

B5: Ab55h-PM25 (antibody, V domains shown)
VH: QVQLQESGPGLVKPSETLSLTCAVSGYSISGDYYWGWIRQPPGKGLEWIGSIYHSGYTYYNPSLKSRVTISVDTSKNQFSLKLSSVTAADTAVYYCARDVGFYVIAFDYWGQGTLVTVSS
VL: EIVMTQSPATLSVSPGERATLSCRASQSVSSNLAWYQEKPGQAPRLLIYGASTRATGIPARFSGSGSGTEFTLTISSLQSEDFAVYYCQQYNNWPPLTFGGGTKVEIK
In assay [1], B5 came in with an EC50 of 340 pM.

B6: Ab55h-PM27 (antibody, V domains shown)
VH: QVQLQESGPGLVKPSETLSLTCAVSGYSISGDYYWGWIRQPPGKGLEWIGSIYHSGYTYYNPSLKSRVTISVDTSKNQFSLKLSSVTAADTAVYYCARDSGFYVIAFDIWGQGTLVTVSS
VL: EIVMTQSPATLSVSPGERATLSCRASQSVSSNLAWYQEKPGQAPRLLIYGASTRATGIPARFSGSGSGTEFTLTISSLQSEDFAVYYCQQYNNWPPLTFGGGTKVEIK
B6 gave an EC50 in assay [1] of 200 pM.

B7: Ab55h-PM23 (antibody, V domains shown)
VH: QVQLQESGPGLVKPSETLSLTCAVSGYSISGDYYWGWIRQPPGKGLEWIGSIYHSGYTYYNPSLKSRVTISVDTSKNQFSLKLSSVTAADTAVYYCARDSGWYVIAFDYWGQGTLVTVSS
VL: EIVMTQSPATLSVSPGERATLSCRASQSVSSNLAWYQEKPGQAPRLLIYGASTRATGIPARFSGSGSGTEFTLTISSLQSEDFAVYYCQQYNNWPPFTFGGGTKVEIK
In the case of B7, in [1], the EC50 turned out to be 220 pM.

B8: Ab55h-PM28 (antibody, V domains shown)
VH: QVQLQESGPGLVKPSETLSLTCAVSGYSISGDYYWGWIRQPPGKGLEWIGSIYHSGYTYYNPSLKSRVTISVDTSKNQFSLKLSSVTAADTAVYYCARDSGWYVIGYDYWGQGTLVTVSS
VL: EIVMTQSPATLSVSPGERATLSCRASQSVSSNLAWYQEKPGQAPRLLIYGASTRATGIPARFSGSGSGTEFTLTISSLQSEDFAVYYCQQYNNWPPLTFGGGTKVEIK
B8 showed an EC50 in assay [1] of 310 pM.

B9: Ab55h-PM-R9 (antibody, V domains shown)
VH: QVQLQESGPGLVKPSETLSLTCAVSGYSISGDYYWGWIRQPPGKGLEWIGSIYHSGYTYYNPSLKSRVTISVDTSKNQFSLKLSSVTAADTAVYYCARDSGWSVIAFDYWGQGTLVTVSS
VL: EIVMTQSPATLSVSPGERATLSCRASQSVSSNLAWYQEKPGQAPRLLIYGASTRATGIPARFSGSGSGTEFTLTISSLQSEDFAVYYCQQYNNWPPLTFGGGTKVEIK
Consider B9, for which the binding result in assay [2] was “binds”.

B10: Ab55h-PM24 (antibody, V domains shown)
VH: QVQLQESGPGLVKPSETLSLTCAVSGYSISGDYYWGWIRQPPGKGLEWIGSIYHSGYTYYNPSLKSRVTISVDTSKNQFSLKLSSVTAADTAVYYCARDVGWYVIAFDIWGQGTLVTVSS
VL: EIVMTQSPATLSVSPGERATLSCRASQSVSSNLAWYQEKPGQAPRLLIYGASTRATGIPARFSGSGSGTEFTLTISSLQSEDFAVYYCQQYNNWPPLTFGGGTKVEIK
B10: in assay [1], the EC50 was found to be 200 pM.

B11: Ab55h-PM-R6 (antibody, V domains shown)
VH: QVQLQESGPGLVKPSETLSLTCAVSGYSISGDYYWGWIRQPPGKGLEWIGSIYHSGYTYYNPSLKSRVTISVDTSKNQFSLKLSSVTAADTAVYYCARDSGWYVIAFDYWGQGTLVTVSS
VL: EIVMTQSPATLSVSPGERATLSCRASQSVSSNLAWYQEKPGQAPRLLIYGASTRATGIPARFSGSGSGTEFTLTISSLQSEDFAVYYCQQYNSWPPLTFGGGTKVEIK
For the molecule B11, in assay [2], the binding result was “binds”.

B12: Ab47h (antibody, V domains shown)
VH: QVQLVESGGGVVQPGRSLRLSCAASGFTFSNYGIHWVRQAPGKGLEWVAAIWYDGNNKYYADSVKDRFTISRDNSKNTLYLQMNSLRVEDTAVYYCARNGVLGAFDIWGQGTMVTVSS
VL: DIQMTQSPSSLSASVGDRVTITCRASQGISNYLAWYQQKPGKVPKLLIYAASTLQSGVPSRFSGSGSGTDFTLTISSLQPEDVATYYCQKYNSSPWTFGQGTKVEIK
B12: the Kd in [3] stood at 10000 pM.

B13: Ipilimumab (antibody, V domains shown)
VH: QVQLVESGGGVVQPGRSLRLSCAASGFTFSSYTMHWVRQAPGKGLEWVTFISYDGNNKYYADSVKGRFTISRDNSKNTLYLQMNSLRAEDTAIYYCARTGWLGPFDYWGQGTLVTVSS
VL: not shown
Consider B13, for which the MFI in the assay with hBTLA on HEK293 cells turned out to be 67 MFI; with hPDL1 on HEK293 cells, 70 MFI; in the assay with hICOS on HEK293 cells, 67 MFI; with hPDL2 on HEK293 cells, 73 MFI; with hPD1 on HEK293 cells, 77 MFI; with hCD28 on HEK293 cells, 67 MFI. In [4], this molecule showed an EC50 of 671000 pM.

As a reminder, the EC50 is the concentration needed to bring the measured effect to its halfway point. By EC50 (read off the curve) is commonly meant the concentration needed to bring the measured effect to its halfway point. A high value points to a need for much substance. By Kd is commonly meant the free concentration of one partner at which half of the binding sites on the other are occupied at equilibrium, for simple one-to-one binding.
